Test results published in the supplement of paper PMC9876800.

Test system: peptide library, one residue held at a place counted from the S/T acceptor
Assay: relative phosphorylation of the sub-library (ratio to the mean residue at this position); higher = residue favoured
Conditions: human
Summary of the method: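 Relative sub-library phosphorylation is the ratio of each sub-library's signal to the mean residue at that position. The signal came from phosphorimaging of spots on streptavidin membranes, quantified by densitometry, after purified recombinant kinases reacted with biotinylated degenerate peptide sub-libraries in 384-well plates. Reactions held 50 μM peptide and 50 μM ATP spiked with γ-32P-ATP for 90 min under kinase-specific conditions.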

STK25, construct: Full length, sequence (O00506 whole entry, looked up): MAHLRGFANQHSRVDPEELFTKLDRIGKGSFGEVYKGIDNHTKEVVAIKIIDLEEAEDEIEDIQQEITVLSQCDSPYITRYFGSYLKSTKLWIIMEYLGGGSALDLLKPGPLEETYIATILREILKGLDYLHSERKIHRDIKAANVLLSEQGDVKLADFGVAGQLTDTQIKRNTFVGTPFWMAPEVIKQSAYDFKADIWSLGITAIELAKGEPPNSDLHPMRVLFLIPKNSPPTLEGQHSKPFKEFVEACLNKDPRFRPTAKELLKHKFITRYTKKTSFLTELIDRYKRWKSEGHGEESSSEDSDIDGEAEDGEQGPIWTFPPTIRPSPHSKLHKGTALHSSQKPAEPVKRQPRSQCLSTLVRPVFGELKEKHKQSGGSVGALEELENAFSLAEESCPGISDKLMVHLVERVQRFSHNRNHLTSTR
STK26, construct: Full length, sequence (Q9P289 whole entry, looked up): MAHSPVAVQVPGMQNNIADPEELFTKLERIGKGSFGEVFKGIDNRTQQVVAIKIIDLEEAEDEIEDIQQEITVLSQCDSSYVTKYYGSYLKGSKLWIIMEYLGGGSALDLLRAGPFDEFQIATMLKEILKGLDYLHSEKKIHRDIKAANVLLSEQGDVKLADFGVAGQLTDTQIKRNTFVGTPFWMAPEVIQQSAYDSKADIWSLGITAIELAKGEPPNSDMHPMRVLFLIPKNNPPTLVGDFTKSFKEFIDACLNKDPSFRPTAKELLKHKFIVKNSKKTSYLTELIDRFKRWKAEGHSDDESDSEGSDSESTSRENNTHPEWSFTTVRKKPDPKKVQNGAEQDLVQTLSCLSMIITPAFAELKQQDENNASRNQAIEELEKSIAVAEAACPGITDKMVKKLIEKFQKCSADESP
ULK1, construct: aa1-649, sequence (O75385 1-649, looked up): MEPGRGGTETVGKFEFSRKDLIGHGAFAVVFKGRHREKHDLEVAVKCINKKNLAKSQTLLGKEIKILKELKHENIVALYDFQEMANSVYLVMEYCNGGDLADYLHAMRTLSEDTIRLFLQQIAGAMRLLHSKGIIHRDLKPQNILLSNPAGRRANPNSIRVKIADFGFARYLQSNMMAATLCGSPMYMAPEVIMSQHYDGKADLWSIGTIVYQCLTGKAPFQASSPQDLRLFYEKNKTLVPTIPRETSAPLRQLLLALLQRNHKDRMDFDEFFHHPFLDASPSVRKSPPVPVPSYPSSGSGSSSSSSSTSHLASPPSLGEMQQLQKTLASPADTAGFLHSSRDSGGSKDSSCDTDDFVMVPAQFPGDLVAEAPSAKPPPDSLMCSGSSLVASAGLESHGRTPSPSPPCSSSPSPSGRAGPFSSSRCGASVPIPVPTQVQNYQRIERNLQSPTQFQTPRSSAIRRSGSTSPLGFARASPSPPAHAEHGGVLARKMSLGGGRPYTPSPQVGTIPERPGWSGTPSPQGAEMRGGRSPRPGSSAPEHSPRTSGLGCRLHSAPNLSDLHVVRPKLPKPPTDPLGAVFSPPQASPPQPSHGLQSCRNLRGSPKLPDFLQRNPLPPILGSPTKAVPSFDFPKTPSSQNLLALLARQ

STK25, construct: Full length (from UniProt O00506)
relative phosphorylation
Conditions | at +1 | at +2 | at +3 | at +4 | at -1 | at -2 | at -3 | at -4 | at -5
A fixed | 0.561 | 0.853 | 0.857 | 0.981 | 0.996 | 1.07 | 0.986 | 1 | 1.24
D fixed | 0.151 | 0.326 | 0.447 | 0.515 | 0.772 | 0.464 | 0.671 | 0.752 | 0.774
E fixed | 0.166 | 0.195 | 0.404 | 0.454 | 0.538 | 0.398 | 0.604 | 0.865 | 0.682
F fixed | 1.28 | 0.564 | 1.01 | 0.718 | 0.756 | 1.19 | 0.875 | 0.975 | 0.922
G fixed | 0.443 | 1.13 | 1.17 | 1.12 | 1.98 | 1.26 | 1.27 | 1.1 | 1.21
H fixed | 0.884 | 1.24 | 1.07 | 1.2 | 1.3 | 1.43 | 1.24 | 1.11 | 1.15
I fixed | 1.87 | 0.572 | 0.895 | 0.845 | 0.453 | 0.86 | 0.777 | 0.775 | 0.801
K fixed | 0.669 | 2.4 | 1.64 | 2.01 | 1.23 | 1.04 | 1.31 | 1.28 | 1.52
L fixed | 1.56 | 0.486 | 0.865 | 0.743 | 0.901 | 0.791 | 0.844 | 0.8 | 0.758
M fixed | 1.89 | 0.735 | 0.926 | 0.822 | 1.14 | 0.879 | 0.974 | 0.99 | 0.899
N fixed | 0.474 | 1.08 | 0.985 | 0.919 | 1.26 | 1.01 | 1.13 | 1.03 | 0.902
P fixed | 0.175 | 0.616 | 0.787 | 1.11 | 0.599 | 0.693 | 0.876 | 0.871 | 1
Q fixed | 0.683 | 0.785 | 0.819 | 0.856 | 0.795 | 0.773 | 0.865 | 0.868 | 0.846
R fixed | 0.947 | 3.75 | 2.26 | 2.19 | 1.66 | 1.25 | 1.38 | 1.3 | 1.38
V fixed | 1.59 | 0.626 | 0.829 | 0.718 | 0.462 | 0.78 | 0.711 | 0.849 | 0.848
W fixed | 2.17 | 0.772 | 0.979 | 0.943 | 0.862 | 1.33 | 1.26 | 1.25 | 1.02
Y fixed | 1.48 | 0.872 | 1.06 | 0.852 | 1.3 | 1.79 | 1.23 | 1.18 | 1.05
pThr fixed | 0.459 | 0.376 | 0.534 | 0.435 | 0.45 | 0.615 | 0.774 | 0.98 | 0.918
pTyr fixed | 0.327 | 0.223 | 0.456 | 0.372 | 0.866 | 0.691 | 0.858 | 0.837 | 0.866

STK26, construct: Full length (from UniProt Q9P289)
relative phosphorylation
Conditions | at +1 | at +2 | at +3 | at +4 | at -1 | at -2 | at -3 | at -4 | at -5
A fixed | 0.593 | 0.524 | 0.871 | 0.922 | 0.76 | 0.947 | 0.809 | 1.21 | 1.23
D fixed | 0.265 | 0.606 | 0.583 | 0.538 | 0.894 | 0.424 | 0.625 | 0.745 | 0.706
E fixed | 0.21 | 0.519 | 0.525 | 0.538 | 0.475 | 0.373 | 0.616 | 0.797 | 0.653
F fixed | 1.24 | 0.246 | 0.869 | 0.625 | 0.499 | 0.972 | 0.754 | 0.771 | 0.777
G fixed | 0.583 | 2.19 | 1.44 | 0.991 | 2.31 | 1.21 | 1.09 | 1.09 | 1.03
H fixed | 0.805 | 1.06 | 1 | 1.06 | 1.11 | 1.35 | 1.01 | 1.17 | 1.05
I fixed | 1.56 | 0.511 | 0.798 | 0.971 | 0.397 | 0.759 | 0.711 | 0.83 | 0.929
K fixed | 0.666 | 3.49 | 2.55 | 2.01 | 2.16 | 2.08 | 2.31 | 1.64 | 1.92
L fixed | 1.78 | 0.402 | 1.05 | 0.77 | 0.78 | 0.549 | 0.665 | 0.682 | 0.783
M fixed | 1.3 | 0.358 | 0.667 | 0.818 | 0.666 | 0.613 | 0.79 | 0.773 | 0.74
N fixed | 0.53 | 1.27 | 0.771 | 0.862 | 1.39 | 1.15 | 1.15 | 1.08 | 0.994
P fixed | 0.372 | 1.03 | 0.636 | 0.828 | 0.551 | 0.659 | 0.739 | 0.879 | 0.791
Q fixed | 0.642 | 0.774 | 0.741 | 0.932 | 0.938 | 0.882 | 0.903 | 0.939 | 1
R fixed | 0.722 | 2.77 | 2.16 | 1.89 | 2.15 | 2.03 | 2.21 | 1.64 | 1.61
V fixed | 1.4 | 0.517 | 0.751 | 0.874 | 0.483 | 0.942 | 0.846 | 0.954 | 1.01
W fixed | 3.2 | 0.394 | 0.814 | 1.38 | 0.821 | 1.01 | 0.943 | 0.941 | 0.969
Y fixed | 1.12 | 0.326 | 0.767 | 0.994 | 0.607 | 1.05 | 0.824 | 0.876 | 0.812
pThr fixed | 0.722 | 0.707 | 0.584 | 0.815 | 0.813 | 1.05 | 0.981 | 0.958 | 0.86
pTyr fixed | 0.604 | 0.368 | 0.714 | 0.54 | 1.2 | 1.19 | 0.996 | 0.69 | 0.834

ULK1, construct: aa1-649 (from UniProt O75385)
relative phosphorylation
Conditions | at +1 | at +2 | at +3 | at +4 | at -1 | at -2 | at -3 | at -4 | at -5
A fixed | 0.56 | 0.645 | 0.867 | 0.899 | 1.17 | 1.22 | 0.964 | 1.16 | 1.15
D fixed | 0.265 | 0.292 | 0.853 | 0.841 | 1.13 | 1.22 | 0.659 | 1.21 | 1.61
E fixed | 0.424 | 0.307 | 0.834 | 0.944 | 1.19 | 1.19 | 0.572 | 0.905 | 1.02
F fixed | 1.74 | 1.12 | 0.842 | 0.803 | 0.477 | 1.08 | 1.11 | 0.716 | 0.797
G fixed | 0.359 | 0.409 | 1.04 | 1.11 | 0.79 | 0.916 | 0.884 | 1.3 | 1.18
H fixed | 0.854 | 1.87 | 1.13 | 1.19 | 0.857 | 1.14 | 0.682 | 1.01 | 1.15
I fixed | 1.53 | 1.26 | 0.869 | 0.738 | 0.543 | 0.753 | 0.674 | 0.678 | 0.572
K fixed | 0.615 | 0.849 | 1.48 | 1.32 | 1.83 | 0.608 | 0.404 | 0.832 | 1.09
L fixed | 1.13 | 0.94 | 0.901 | 0.836 | 0.723 | 0.799 | 1.56 | 0.821 | 0.733
M fixed | 2.01 | 1.23 | 0.906 | 0.848 | 1.19 | 1.09 | 4.03 | 1.07 | 0.786
N fixed | 0.563 | 0.816 | 0.891 | 1.01 | 1.09 | 0.947 | 1.1 | 1.2 | 1.42
P fixed | 0.234 | 0.211 | 0.927 | 1.32 | 0.397 | 0.439 | 0.698 | 1.27 | 0.811
Q fixed | 1.26 | 0.753 | 1.24 | 1.17 | 1.52 | 0.991 | 0.837 | 1.02 | 0.957
R fixed | 0.725 | 0.989 | 1.2 | 0.993 | 1.57 | 0.545 | 0.447 | 0.844 | 1.1
V fixed | 1.47 | 1.02 | 0.866 | 0.77 | 0.903 | 0.913 | 0.574 | 0.659 | 0.661
W fixed | 1.39 | 1.65 | 1.1 | 1.2 | 0.82 | 1.93 | 1.2 | 1.6 | 1.18
Y fixed | 1.87 | 2.64 | 1.04 | 1 | 0.794 | 1.22 | 0.599 | 0.716 | 0.786
pThr fixed | 0.885 | 0.413 | 0.718 | 1.13 | 0.568 | 0.67 | 0.704 | 0.846 | 0.762
pTyr fixed | 1.14 | 0.618 | 0.648 | 0.615 | 0.99 | 1.12 | 0.642 | 0.672 | 0.664
